# Biological target: the molecule itself
# Assay: crystal structure
protein,measurement,value
"human Caprin-2 fragment (residues 199-329), dimerization domain (domain or fragment, Se-Met labelled (L-seleno-methionine in place of methionine) in the crystal used for the structure) GPSSPSQRREHMLKLEAEKKKLRTILQVQYVLQNLTQEHVQKDFKGGLNGAVYLPSKELDYLIKFSKLTCPERNESLSVEDQMEQSSLYFWDLLEGSEKAVVGTTYKHLKDLLSKLLNSGYFESIPVPKNAKEKEVP",stoichiometry N,2
